# Data from article PMC7596504, “Molecular mechanism of the MORC4 ATPase activation” (Nature Communications, 2020).
# Columns and labels:
# MORC4 = assay: ATPase activity assay (EnzChek Phosphate Assay Kit); type: biochemical, human; set-up: Rate of ATP hydrolysis: unit not given here; conditions: for Rate of ATP hydrolysis: no DNA, no peptide
# Protocol: To determine whether MORC4 is catalytically active, we produced the ATPase domain of human MORC4 and examined its ability to hydrolyze ATP in enzymatic assays (Fig. 1a–c). Following incubation of the ATPase domain with ATP, 2-amino-6-mercapto-7-methylpurine ribonucleoside and nucleoside phosphorylase, the release of inorganic phosphate generated by the hydrolysis of ATP to ADP was monitored by measuring an increase in absorbance at 360 nm.
# The ATPase assays were performed using the EnzChek Phosphate Assay Kit (Invitrogen, item # E6646). The reactions were carried out on 1.0 µM of MORC4 His-ATPase or ATPaseCW (WT and mutants), in the presence and absence of 1 µM 601 DNA or 50 µM of unmodified H3 or H3K4me3 peptide (aa 1–12 of H3) in a buffer containing 50 mM Tris-HCl (pH 7.5), 150 mM NaCl, 1 mM MgCl2, 0.1 mM sodium azide, 200 µM MESG, and 1 U of PNP. In assay with the nucleosome, 0.5 µM of MORC4 ATPaseCW and 0.5 µM NCP167 (Activemotif) were used. The reaction was started by adding 2 mM ATP to the mixture at room temperature, and the release of inorganic phosphate was monitored by measuring the absorbance at 360 nm on a Nanodrop 2000c spectrophotometer (Thermo Scientific). In the presence of inorganic phosphate, produced by the hydrolysis of ATP to ADP, MESG is enzymatically converted to ribose 1-phosphate and […] by PNP, resulting in a shift in the wavelength absorbance from 330 nm for MESG to 360 nm for the product. The rate of ATP self-hydrolysis was measured in parallel. Error was calculated as the S.D. of at least three separate experiments (two in Fig. 4j).
# MORC4 CW domain = molecular target: T1, MORC4 CW domain (Homo sapiens, UniProt Q8TE76); assay: 1H,15N HSQC NMR titration of MORC4 CW; type: binding
# T1 construct: The CW domain (aa 417–475) of MORC4 was cloned into a pGEX 6p-1 vector; GST (N, cleaved yes); made in house; host or cells: E. coli Rosetta2 (DE3) pLysS or BL21 (DE3) RIL
# T1 sequence (Q8TE76 417-475): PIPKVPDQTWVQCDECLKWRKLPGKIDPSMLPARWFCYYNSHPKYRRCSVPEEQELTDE
# Protocol: NMR experiments were carried out at 298 K on a Varian INOVA 600 and 900 MHz spectrometers. His-tagged MORC4 ATPase (1–411) was expressed and purified as described above and used without cleavage of the tag. NMR samples contained 0.1 mM uniformly ^15N-labeled WT or mutated CW in 20 mM Tris-HCl (pH 7) buffer supplemented with 100 mM NaCl, 5 mM DTT, and 10% D2O. Binding was characterized by monitoring CSPs in the proteins induced by H3 peptides or the ATPase domain. For the CWKRR mutant, NMR experiments were performed in 20 mM Tris-HCl (pH 6.8) buffer supplemented with 150 mM NaCl, 2 mM DTT, and 10% D2O.
# NCP147 [1] = assay: Fluorescence polarization binding to NCP147
# NCP207 = assay: Fluorescence polarization binding to NCP207
# Protocol: Fluorescence polarization measurements were acquired with a Tecan infinite M1000Pro plate reader by exciting at 470 nm and measuring polarized emission at 519 nm with 5 nm excitation and emission bandwidths. The fluorescence polarization was calculated from the emission polarized parallel and perpendicular to the polarized excitation light. Fluorescence polarization measurements were carried out using increasing concentrations of MORC4 ATPaseCW, ATPase alone, or CW alone with 5 nM 207 bp Fluorescein-labeled NCPs in 15 mM Tris pH 7.5, 75 mM NaCl, 0.00625% Tween 20, and 5 mM dithiothreitol buffer in 30 µL reaction volumes. The samples were loaded into a Corning round bottom black polystyrene plate and incubated at room temperature for 10 min before fluorescence polarization measurements of the samples were taken. The data were then fit to a non-cooperative binding isotherm to determine S1/2 values. Errors represent a S.D. between the S1/2 values based on three runs.
# Histone octamers unlabeled or labeled with Cy5 at H2AK119 were prepared as previously described. NCPs were reconstituted by combining octamer with 1.25× excess DNA and performing slow salt dialysis. Free DNA was then separated from fully reconstituted NCPs by sucrose gradient purification. NCPs for fluorescence polarization assays were reconstituted from unlabeled octamer and 207 bp DNA containing the 601 Widom sequence flanked with a 30 bp linker on either side and internally labeled with Fluorescein 27 bp in from the 5′ end. Cy3-Cy5 labeled NCPs for FRET assays were reconstituted with Cy5 labeled octamer plus either 147 bp 601 Widom DNA containing a LexA transcription factor binding site at bases 8–27[34], or 252 bp DNA containing the 601 Widom sequence with a 75 bp linker at the 3′ end, a 30 bp linker at the 5’ end, and a Gal4 transcription factor binding site at bases 8–26 in the 601 Widom sequence. The 147 bp LexA-binding DNA was labeled with Cy3 on the 5′ end, and the 252 bp Gal4-binding DNA was internally labeled with Cy3 34 bp in from the 5′ end.
# NCP147 [2] = assay: EMSA with NCP147; type: binding; conditions: 5 nM 147 bp fluorescein-labeled NCP, pH 7.5, 4 °C
# Protocol: EMSAs were performed by mixing increasing amounts of MORC4 ATPase with 5 nM 147 bp fluorescein-labeled NCP in 25 mM Tris-HCl pH 7.5, 75 mM NaCl, 25 mM Tris-HCl pH 7.5, 0.005% Tween 20, and 10% glycerol buffer in a 12 μL reaction volume. Each sample was incubated at 4 °C for 5 min and then loaded onto a 5% native polyacrylamide gel. Electrophoresis was performed in 0.3× Tris-borate-EDTA (TBE) at 300 V for 90 min. Fluorescein fluorescence images were acquired with a Typhoon Phosphor Imager.
molecule,measurement,setting,value
"ATPase: ATPase domain (aa 29–411) of human MORC4 (Q8TE76) (protein, UniProt Q8TE76 29-411, looked up, fragment) GIRLSTMSPRYLQSNSSSHTRPFSAIAELLDNAVDPDVSARTVFIDVEEVKNKSCLTFTDDGCGMTPHKLHRMLSFGFTDKVIKKSQCPIGVFGNGFKSGSMRLGKDALVFTKNGGTLTVGLLSQTYLECVQAQAVIVPIVPFNQQNKKMIITEDSLPSLEAILNYSIFNRENDLLAQFDAIPGKKGTRVLIWNIRRNKNGKSELDFDTDQYDILVSDFDTEEKMTGGVTSELPETEYSLRAFCGILYMKPRMKIFLRQKKVTTQMIAKSLANVEYDTYKPTFTNKQVRITFGFSCKNSNQFGIMMYHNNRLIKSFEKVGCQVKPTRGEGVGVIGVIECNFLKPAYNKQDFEYTKEYRLTINALAQKLNAYWKEKTSQDNFET",catalytic (ATPase) activity of the protein,MORC4,possesses little ATP hydrolyzing activity
same,Rate of ATP hydrolysis,"MORC4; 1.0 µM protein, 2 mM ATP, pH 7.5, room temperature, absorbance 360 nm, Fig. 1b,c, mean",0.08049
same,Rate of ATP hydrolysis,"MORC4; Fig. 1b, replicate 4",0.02158
same,Rate of ATP hydrolysis,"MORC4; Fig. 1b, replicate 5",0.01439
same,interaction with CW by chemical shift perturbations,"MORC4 CW domain; 15N-labeled WT CW 0.1 mM, pH 7, 100 mM NaCl, 298 K",formation of the large ATPase:CW complex
same,competition with H3 peptide for CW,MORC4 CW domain; titration into the CW:H3 complex,disruption of the CW:H3 complex and formation of the complex between CW and the ATPase domain
same,decrease in binding to NCP147 compared to NCP207,NCP147 [1]; NCP147 vs NCP207 (peer review file),5 fold
same,S1/2,"NCP147 [1]; fluorescence polarization, pH 7.5, 75 mM NaCl, room temperature, 10 min, mean of n = 3",2.3 µM
same,increase in interaction with NCP207 relative to NCP147,NCP207; NCP207 vs NCP147,~ 5 fold
same,S1/2,"NCP207; fluorescence polarization, 5 nM NCP207, pH 7.5, 75 mM NaCl, room temperature, 10 min, mean ± S.D. of n = 3",0.50 ± 0.08 µM
same,binding to NCP147 in EMSA,NCP147 [2],bound to NCP147
